Laboratory results from US20050245731A1.
Values joined by “and” are separate entries in the source; they are usually repeats but may differ in a detail not shown here. Equal entries are not always repeated.

Experiments:
[1] = molecular target: TNF-α cell surface receptors on human HeLa and FS11 fibroblast cells (human); assay: 125I-TNF-α binding to cells; control without urine concentrate, condition C (4° C. together with TNF-α)
[2] = molecular target: TNF-α cell surface receptors on human HeLa and FS11 fibroblast cells (human); assay: 125I-TNF-α binding to cells; control without urine concentrate, condition A (4° C. 90′ prior to application of TNF-α)
[3] = molecular target: TNF-α cell surface receptors on human HeLa and FS11 fibroblast cells (human); assay: 125I-TNF-α binding to cells; control without urine concentrate, condition B (37° C. 90′ prior to application of TNF-α)
[4] = molecular target: TNF-α cell surface receptors on human HeLa and FS11 fibroblast cells (human); assay: 125I-TNF-α binding to cells; urine concentrate holding TNF Inhibitory Protein applied at 37° C. 90′ prior to TNF-α and removed (condition B)

TNF-α cell surface receptors on human HeLa and FS11 fibroblast cells (human), sequence (P19438 30-455): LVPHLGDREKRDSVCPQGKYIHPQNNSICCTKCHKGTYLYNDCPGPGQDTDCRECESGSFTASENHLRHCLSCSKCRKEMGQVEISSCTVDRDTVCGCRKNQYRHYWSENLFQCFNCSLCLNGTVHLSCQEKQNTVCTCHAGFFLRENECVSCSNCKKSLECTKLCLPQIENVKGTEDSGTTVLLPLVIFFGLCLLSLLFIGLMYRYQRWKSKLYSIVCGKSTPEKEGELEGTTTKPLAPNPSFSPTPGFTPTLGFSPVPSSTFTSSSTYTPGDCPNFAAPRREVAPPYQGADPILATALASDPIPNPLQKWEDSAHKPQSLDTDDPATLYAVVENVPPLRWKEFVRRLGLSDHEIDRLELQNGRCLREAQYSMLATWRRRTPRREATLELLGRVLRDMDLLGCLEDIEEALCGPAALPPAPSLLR

Tumor Necrosis Factor-α (TNF-α) (from UniProt P01375 77-233) (ligand)
CPM [1]: 4630 CPM
CPM [2]: 5290 CPM
CPM [3]: 5560 CPM
CPM [4]: 4730 CPM and 4460 CPM
